How the values were obtained:
[1] = biological target: D167N (HIV-1); assay: gp120 capture ELISA
[2] = biological target: D279A (HIV-1); assay: gp120 capture ELISA
[3] = biological target: D368A (HIV-1); assay: gp120 capture ELISA
[4] = biological target: D457A (HIV-1); assay: gp120 capture ELISA
[5] = biological target: D474A (HIV-1); assay: gp120 capture ELISA
[6] = biological target: E370A (HIV-1); assay: gp120 capture ELISA
[7] = biological target: G366A (HIV-1); assay: gp120 capture ELISA
[8] = biological target: G367A (HIV-1); assay: gp120 capture ELISA
[9] = biological target: G471A (HIV-1); assay: gp120 capture ELISA
[10] = biological target: G472A (HIV-1); assay: gp120 capture ELISA
[11] = biological target: G473A (HIV-1); assay: gp120 capture ELISA
[12] = biological target: I371A (HIV-1); assay: gp120 capture ELISA
[13] = biological target: I467A (HIV-1); assay: gp120 capture ELISA
[14] = biological target: K282A (HIV-1); assay: gp120 capture ELISA
[15] = biological target: M373A (HIV-1); assay: gp120 capture ELISA
[16] = biological target: M475A (HIV-1); assay: gp120 capture ELISA
[17] = biological target: N197T (HIV-1); assay: gp120 capture ELISA
[18] = biological target: N262A (HIV-1); assay: gp120 capture ELISA
[19] = biological target: N280A (HIV-1); assay: gp120 capture ELISA
[20] = biological target: N332A (HIV-1); assay: gp120 capture ELISA
[21] = biological target: P369A (HIV-1); assay: gp120 capture ELISA
[22] = biological target: R469A (HIV-1); assay: gp120 capture ELISA
[23] = biological target: R476A (HIV-1); assay: gp120 capture ELISA
[24] = biological target: S365A (HIV-1); assay: gp120 capture ELISA
[25] = biological target: T283A (HIV-1); assay: gp120 capture ELISA
[26] = biological target: V372A (HIV-1); assay: gp120 capture ELISA
[27] = biological target: HIV-1 YU2 gp120 (HIV-1 strain YU2) (UniProt P35961); assay: competition ELISA on gp120 YU2, unlabelled CD4-Ig against CD4Ig-biotin

CD4-Ig (from UniProt P01730 26-203) (Fc fusion)
Binding affinity relative to WT (%) [1]: 58%
Binding affinity relative to WT (%) [2]: 49%
Binding affinity relative to WT (%) [3]: 5%
Binding affinity relative to WT (%) [4]: 3%
Binding affinity relative to WT (%) [5]: 45%
Binding affinity relative to WT (%) [6]: 5%
Binding affinity relative to WT (%) [7]: 7%
Binding affinity relative to WT (%) [8]: 3%
Binding affinity relative to WT (%) [9]: 141%
Binding affinity relative to WT (%) [10]: 2%
Binding affinity relative to WT (%) [11]: 0%
Binding affinity relative to WT (%) [12]: 12%
Binding affinity relative to WT (%) [13]: 115%
Binding affinity relative to WT (%) [14]: 53%
Binding affinity relative to WT (%) [15]: 91%
Binding affinity relative to WT (%) [16]: 117%
Binding affinity relative to WT (%) [17]: 25%
Binding affinity relative to WT (%) [18]: 2%
Binding affinity relative to WT (%) [19]: 75%
Binding affinity relative to WT (%) [20]: 57%
Binding affinity relative to WT (%) [21]: 54%
Binding affinity relative to WT (%) [22]: 7%
Binding affinity relative to WT (%) [23]: 79%
Binding affinity relative to WT (%) [24]: 34%
Binding affinity relative to WT (%) [25]: 55%
Binding affinity relative to WT (%) [26]: 73%
IC50 (read off the curve) [27]: 0.06 µg/mL
